From a protein production outcome set (Wang et al. 2014)

assay: label from the status in PepcDB records
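Further: failed if final PepcDB status was selected cloned or expressed and not failed if soluble or beyond.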

Sequence | protein production
MDEYEDSQSPAPSYQYPKETLRKRQNSVQNSGGSVSSRFSRKSFKLDYRLEEDVTKSKKGKDGRFVNPWPTWKNISIPNVLRWLIMEKNHSGVPGSKEELDKELPVLKPYFVSDPEDAGVREAGLRVTWLGHATLMVEMDELIFLTDPMFSSRASPSQYMGPKRFRRPPCTISELPTIDAVLISHNHYDHLDYGSVLALNERFGSELRWFVPLGLLDWMQKCGCENVIELDWWEENCVPGHDKVTFVFTPSQHWCKRTLLDDNKVLWGSWSVLGPWSRFFFAGDTGYCPAFEEIGKRFGPFDLAAIPIGAYEPRWFMKYQHADPEDAVRIHIDLQTKRSVAIHWGTFALANEHYLEPPVKLNEALERYGLSCEDFFILKHGESRYLNTDDRAFEET | failed
MDFFAIDPIGLPHTSLIFYLSSLLIALLLVFLTFQAYRLKSHRYFFLFLQLSQVIGLYTWYVLRGFPLDEALPLYHCRIAMLAIFFLPDRNKFKQLFMVLGIGGTFLALLSPDLYPFRLWHVANVSFYFGHYALLVNGLIYLLRFYDASQLRLLSVVRYLATVNFLLLLVSLATKGNYGFVMDIPVIHTRHLLLNFVIVTSGLTFMVKITEYFYLKFGEAQQLALAFSKEK | failed
MDFFHHQDTARQRTGLLVMLFTLAVLAITGLVSVISIGIYFYFTGEPFTTQSIISYCLLSFVGVLLVVSISSFIRLSELNANGGRGVAESIGGKLISTDTSNAKHRQLLNVVEEMSIASGIPVPPVYVMAEEHGINAFAAGMSIDDAVIGVTQGALDAFSRDELQGVIAHEFSHILNGDMRLNTRLIGALFGITCIAHFGHLILDNSNSTRHVSRSSSDSNKGFAVIILIAIVCLVLGWLGTLFGNMIKAAISRQREFLADASAVQFTRNDQGIAGALKKIGSNVQGSTLNTKASDEMSHMMFGQSKLSGFSGLFATHPPLDERIRRIEPNWDGSYAQHSHAQNTAFDNEQVSGFAVGGGSPASQSASPSEQLSETGQQLISQLPPELVDIAREPYSARFIAFALIFDGSDIQREMIKSYVPLASQSTLLPWLDYDLPLHLRFPLLELALPALKSLSEAQKISLCKVLRELSETDNQYSLAEWCVINLLEKQLLASFGFIKQHKSLKQLEESVFWLLRELAWVSHSQADKAQRAYHCALAHLGFPEVKLEPANSNWHLSRAALELLLQLKPNDRRMFVKACRLAIESDGEITVAEGEIYRVIACFLEVPEPPLTISG | failed
MDFKIEKYLLKKAEELAFITIKHGGEFKLKSYEVPKGGLDVPIKNEVLVKGIKEKTAQDKLNSMSIADAMIYIIGIDSKFKNNAEYEKFLNALSKDIDLDLKSYMGYMSRKYFEIGEHTDSLIYIKAFITMYPDDLDAMYNYAIVCQEIAKQYQKDMDDKAMNAFLLEAMAKLEKVIDVDENFALGYYHLGYHYYNQGQYLKTKLTWEEALRLGLDADLVAEVQENLGKMDFKVQYEEGYTLVFQGKFKEGLEKLLPLEEEHMDWWNLLFMIALGYKGMGEIEQAKMYLEKILIIKPNQVDTIVELGLCEAYKNNLDKAIEYFEQAAKIKEDPEILCNLGMAYLNNGDIDDATYYIERAYELNPQDEITIVCLRELGINK | failed
MDFLLRTITMNERRALGFGVAAVLLWSTVATAFKITLEHFTPTQMLTIASAVSILALAGVAAYQKTLSQLIDTFLANPLYYILLGAINPLAYYLVLFKSYDLLPASQAQPLNYSWAITLTLMAAVFLGQKIRKQDWIACVLGYLGVIVIATKGDVLALEFDSPLGVGLALFSTLLWAGYWILNTKNKADPILGLLLGFLVALPVAIGLSIYEGAPWAQIPMSGWAAVSYVGLFEMGVTFVLWLSALRLTQNTARISNLIFASPFISLLLLANIIGEEIHPSTLIGLIMIVCGLLIQQFFGKKEELQTEQ | failed
MDFLPIFVIIASVMTAVSVYLIYLVKKGINGIGFLLVLYLSGSMLTMFISLSIALSNTALTTEILALTVNTAYMIVGLVSILLLGASRRKIESRKWYTVLLFSLLMTISEAVMGESFYSILTKSIGNPLIGTENYWFYAVMLAEMTFTLVYSFNSLTRQIRNYLLVTLPIMVVSPVILPTFSIWLSSLLMIVATIIIYDTLYRDRLKKTQETFTSLELMLIFTLMMAGIFTYYVTSSWYLYDISMILGMTWFIYRAIQGPSSIKGNYLRDSRWTFAFVLMTFVMEWFMGAVLDFASSYFSPGVEGFISSLPLGFVNPFSYFGAGALFDFLSIFGSVTGSVWFLVMMGLEMGTLAIFRIKEVRLRENRIRLALMVSAFAIYAVYIPSFSPLASKIPYIPYMWSMGLGTLGPVSTDYLLSGIVGTYVLSAVLSFLFGSRQICSVTCTAPTMYQGTFYNSLKVYNRTSSFARKTLSSKLRPWYKLIAIAVWSSLLAFAVISYFDQKGILNITIFGNDPTMFLYSFYFNFLWYVVFISIPFSGNYACVTQGWCSWGTFNQFFGGLGLFRLKVKDPELCVKCETKACSKACPVGNTDLPGNFIKKGEFKSSRCIGVGDCAEACPYDNIMFYDVRSWLKEKIKGDKM | failed
MDFLTEWIWFFLFVPLAALGGWIVGRRGGQRHGDTQVSRLSSTYFRGLNYLLNEQPDKAIELFLHIAELDKETFETQVALGHLFRRRGEVDRAIRLHQGLVQRGDLTDQQRVQALLALGEDYMKSGLLDRAETVFTELAQLDQRAPQALRHLIGIYQAERDWEKAIDNATRYEEVTGEPMGKLISQFECELADRYRGLGKTDDALQAIARAYQADGTSVRAGILEGRIEAERGHDEAAVRAFERAARHDPEYLPEIIPALMAAYRRVGDIAGARNFLSEMTEHYRGIAPVLALTQLMEAQDGVAPALAYLGRQLKDRPSVRGESALIDLTLAEGSDPVGTLQDLKHITDQLLVRNPSYRCTRCGFGAKTHHWQCPSCKEWGTVKPLLNYAVV | failed
MDFNYTIKALRTKKKLDAKPMTHTDFCYTIKALRSTKKLDAKPKPHTDFGYTIKVLRSRKKLELEPQLDLKSLSSVDLLEDTNSKTHTDFSYTIKASRSKKKLDTKSKTRTVFDYTIKAFRSKKKLDRKPKTHTDFGYTFKAMRSKKKLC | failed
MDFQAVTDELKTWTKARVMPGFSVALLTGKTVQTAVSGEAQWFPQPAPLQPHMLYDVASLTKVIGTTTVFLQAWDQGLVSPDMPLHRFLPDFPHTTTFRQALTHTSGLEGYIPHRNALPAPALKQALMTQLTVTEEVDRQVVYRDVNLLLVGWALEQVYHQPIQTLITRQVIQPLALPQATFQPDSQQCVPTTYSPAVGLRQGVVHDPKSAILGKHSGAAGLFASLADLVTFTEYFFGNRQSASWPAHAVDLTQDWTKHHLGRSLGWDLRRDGQGRLWLYHTGYTGTFWLIQPDDQLALVVLTNRVHPQPNPAFLARRDALIARFLSDFKTMPAV | failed
MDFRRAPELIGRLQEQAVVPREQGVQRLMRLALEYWLLPVLLLAAAVRFYDLTAAAIWGDEGSSLVLSQYSLSEIWFHAARDVHPPLYFMLLRGWIELFGDGIFSIRTFSALPGIVTVGLGMWLVALLATRRAAILAGVLLALLPTAVRYSQEVRMYALLGLLLLGATLALVYWLRQPSRPGYLVSYALLMTLAFYTHYFTAFCVLAHWLYLAVSGVRAEGGGRLVTRPAWWLANAAIVLLFLPWVPELLDLLRHMDELKANGDVGWEPVVTWSSLPAMVWQLLIQDEGDNLPGALFVGMPLLLLAVCSVLAWRDGAPARFGGLLASFTLLPLLLVFAVSFASPVFIERYLTAYALGLPMIMAVLIDRWLKTARLVALALLLGFVGLEAVGLKNNIDVDANDQISVMVDYVNRHYVAGDRIVISDMLWYLSYVYYNRTDAQPMLYTPPLPGGTSSRPNAYGFGTLIDHPDQVYLDQLSALSVGSGRYWLVGSDDQSEEFAPLPQGWHKVGQFAAGGTRARLFVLCGSAAGASCAGQ | failed
MDFSPPTTTADQSRRGFLKKSLAVSATVAAIGSLPRLSAAEPLTQRYPDPLVGVLDDSFLDIRIFNASVEKLATGMRWAEGPVWVGDGRYLLVSDIANNRIMRWDEVTGALSVYREHSNFSNGMCRDRQGRLLVCEGSSTTSEGRRVTRTEYNGRITVLADSFDGKPFNSPNDIVCKHDGSIWFTDPTFQANSDYEGHKVKQEQPFGVYRIDPSSGKVSRVIDDLAGPNGLCFSPDEKTLYVVEGRAKPNGLIWAIAVNEDGTLGERRKHVEGLEYAAIDGIKCDESGNLWCGWGGNGNPKADLEKLDGVRVFNPQGKAIGHISLPERCANLCFGGREGNRLFMASSHSLYSVFVNARGATLA | failed
MDFSSNVAAQLNAGTILPEGIVIVTLLLVLIVDLIGGRKVALALPYLAIAGLLVSVGLLVTSWSMADPIGFIGAFNGDNLSIIFRAIIALSTVVTILMSVRYVQQTGTSLAEFIAILLTATLGGMFLSAANELVMVFISLEMLSISSYLMTGYMKRDPRSNEAALKYLLIGASSSAIFLYGLSLLYGLSGGETQLVLIAEKLVNADTVGQSLGLAIALVFVIAGIAFKISAVPFHQWTPDVYEGSPTPVVAFLSVGSKAAGFAVAIRLLVTAFGGITDEWHVIFTALAVLSMVLGNVVALAQTSMKRMLAYSSIGQAGFVMIGLVAGSEDGYASMVFYMLIYLFMNLGAFSCIILFTLRTGSDQISDYAGLYHKDPLLTLGLSICLLSLGGIPPLAGFFGKIYIFWAGWQSGLYGLVLLGLVTSVVSIYYYIRVVKMMVVKEPQEMSEVIKNYPAIKWNLPGMRPLQVGIVATLVATSLAGILANPLFNLATDSVVSTKMLQTALQQTGETPAIAISHDLP | failed
MDFSVLLASLGISILELSEASAVAVIFQGIYKNSKPFLYAIAGILIVLVPVFTLGQYIVLLPINYVLLVAAVILAYFGYKLLRSARRSFKGSKKKHEEKEEGIMTVFVVSATEALEAGLVILALIPQSFSSALLGTGIAVIIVIALTIALRSQIMKIRVPHLKFVLSALLFGLATLFVAEALVDIDEVFLPLFFVIYLGVNYLVIKL | failed
MDFVFDIDGTLCFDGMSLSKEIQGILERAQIDYGHRVTFATARSYRDTIGILGDKLSLSKIIGLNGATLHENGHLVDSYYLQSDFFSTIISYCHRHQIPYFVDEVFNYATYQASKIPFIAYVDPQKRGELLEVSKIEKPIKMVLYFGDQLGRADQMLAELNRFGLSSHFFHEFEKCLYINPIAVDKGKATKKLFGNRFIAFGNDKNDISMFDAAHYSVQVGDFDELTPYANLRVSRESVHEGITTLFEKYKGIT | failed
MDFWPEFMATSWGREFVAGGFGGVAGIISGYPLDTLRIRQQQSSKSGSAFSILRRMLAIEGPSSLYRGMAAPLASVTFQNAMVFQIYAIFSRSFDSSVPLVEPPSYRGVALGGVATGAVQSLLLTPVELIKIRLQLQQTKSGPITLAKSILRRQGLQGLYRGLTITVLRDAPAHGLYFWTYEYVRERLHPGCRKTGQENLRTMLVAGGLAGVASWVACYPLDVVKTRLQQGHGAYEGIADCFRKSVKQEGYTVLWRGLGTAVARAFVVNGAIFAAYEVALRCLFNQSPSPDIVTGD | failed
MDGGDDGNLIIKKRFVSEAELDERRKRRQEEWEKVRKPEDPEECPEEVYDPRSLYERLQEQKDRKQQEYEEQFKFKNMVRGLDEDETNFLDEVSRQQELIEKQRREEELKELKEYRNNLKKVGISQENKKEVEKKLTVKPIETKNKFSQAKLLAGAVKHKSSESGNSVKRLKPDPEPDDKNQEPSSCKSLGNTSLSGPSIHCPSAAVCIGILPGLGAYSGSSDSESSSDSEGTINATGKIVSSIFRTNTFLEAP | not failed
MDGGFVRVCLLASGSKGNSLFVESDGTRVLIDAGLSAREIVRRLAVIEVEPADLDGLFISHEHVDHVRGVGVLARKYRLPVHVSYPTHHEVREGFGDAPVVEFESGYSFGFRDLLIDPFPITHDACDPVGFTIESKEGKVGIATDLGTATRLVADKLKRCRVLVLESNHDEEMLMGGPYPWHLKQRIKSRHGHLSNNDSAALLAEVLHPGLEGLFLAHLSEVNNDPAVAKEVAENLLVAQTTCSPRLIVGDQYRPSETLTL | failed
